Test results: the RNAGym collection of RNA variant scans (doi:10.1073/pnas.2313332121)
This sample holds only a part of the variants without activity.

B1: TPR 5TU (parent)
chain: GGAUCUUCUCGAUCUAACAAAAAAGACAAAUCUGCCACAAAGCUUGAGAGCAUCUUCGGAUGCAGAGGCGGCAGCCUUCGGUGGCGCGAUAGCGCCAACGUUCUCAACUAUGACACGCAAAACGCGUGCUCCGUUGAAUGGAGUUUAUCAUG

Variants of: B1
Assay: polymerase ribozyme fitness, log enrichment relative to wild type (log ratio); higher = more active; in vitro selection for triplet polymerase activity
How it was run: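 Both subunits of a heterodimeric triplet polymerase ribozyme were given their own mutant library, built by PCR and transcribed. Each library was annealed with a biotinylated primer, the partner subunit and triplets, incubated frozen at −7 °C, and its extended constructs gel-excised, captured on streptavidin beads and amplified by RT-PCR, all in one round done in triplicate. Fitness is the logarithm of genotype enrichment relative to wild-type enrichment, with replicates averaged by inverse-variance weighting. That logarithm is base 2, and Illumina-sequenced genotypes needed ≥10 input reads and ≥1 read per output.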

Variant	polymerase ribozyme fitness (log ratio)
GGAUCUUCUCGAUCUAACAAAAAAGACAAGUCUGCCACAGAGCUGGAGAGCAUCUUCGGAUGCAGAGGCGGCAGCCUUGGGUGGCGCGCUAGCUCCAACGUUCUCAACUAUGACACGCAAAACGCGUGCUCCGUUGAAUGGAGUAUAUCAUG [A30G A40G U45G C79G A89C G94U U145A]	≤ -4.2
GGAUCUUCUCGAUCUAACAAAAAAGACAAGUCUGCCACAGAGCUUGAGAGCAUAUUCGGAUGCAGAGGCGGCAGCCUUCGGUGGUGCGAUAGCGCCAACGUUCUCAACUAUGACACCCAAAACGCGUGCUCCGUUGAAUGGAGUUUAUCAUG [A30G A40G C54A C85U G117C]	≤ -4.2
GGAUCUUCUCGAUCUAACAAAAAAGACAACUCUGCCACAAAGCUUGAGAGCAUCUUCGGAUGCAGAGGCGGCAGCCUUAGGUGGCGCAAUAGCGCCAACGUUCUCAGCUAUGACAGGCAAAACGCGUGCUCCGUUGGAUGGAGCUUAUCAUG [A30C C79A G88A A107G C116G A137G U144C]	≤ -4.2
GGAUCUUCUCGAUCUAACAAAAAAGACAACUCUGCCACAAAGCGUGAGAGCAUCUUCGGAUGCAGAGGCGGCAGCCUUCGGUGGCGCGAUAGCGCCAACGUUCUCAAGUAUGACACGCAAAACGCGUGCUCCGUUGAAUGGAGUGUAUCAUG [A30C U44G C108G U145G]	≤ -4.2
GGAUCUUCUCGAUCUAACAAAAAAGACAACUCUGCCACAAAGCUUGAGAGCAUCUUCGGAUGCAGACACGGCAGCCUUCGGUGGCGCAAUAGAGCCAACGUUCUCAACUAUGACACGCAAAACGCGUGCUCCGUCGAAUGCAGUUUAUCAUG [A30C G67C G68A G88A C93A U135C G141C]	≤ -4.2
GGAUCUUCUCGAUCUAACAAAAAAGACAACUCUGCCACAAAGCUUGAGAGCAUCUUCGGAUGCAGAGACGGCAGCCUUCGGUGGCGUGAUAGCGCCAACGUUCUCUACUAUGACACGCAGAACGCGUGCUCCGUUGAAUGGAGUUUAUCAUG [A30C G68A C87U A106U A120G]	≤ -4.2
GGAUCUUCUCGAUCUAACAAAAAAGACAACUCUGCCACAAAGCUUGACAGCAUCUUCGGAUGCAGAAGCGGCAGCCUUCGGUGGCGCGAUUGCGCCAACUUUCUCAACUAUGACACGCAAAACGCGUGCUCCGUUGAAUGGAGUUUAUCAUG [A30C G48C G67A A91U G100U]	≤ -4.2
GGAUCUUCUCGAUCUAACAAAAAAGACAACUCUGCCACAAAGCUUGAGAGCAUCUUCGGAUGCAGAGGCGGCAGCCUUCGCUGGCGCGAUAGCGCCAACGUUCUCAACUAUGACACGCAAAACGCGUGCUCCGUUGAGUGGAGUUAAUUAUG [A30C G81C A138G U146A C149U]	≤ -4.2
GGAUCUUCUCGAUCUAACAAAAAAGACAACUCUGCCACAAAGCUUGAGAGCAUCUUCGGAUGCAGAGGCGGCAGCAUUCGGUCGCGCGAUAGCGCCAACGUUCUCAACUAUGACACGCAAAACGCGUGCUCCGUUGAAUGGAGUUUAUCAUG [A30C C76A G83C]	≤ -4.2
GGAUCUUCUCGAUCUAACAAAAAAGACAACUCUGCCACAAAGCUUGAGAGCAUCUUCGGAUGCAGAGGCGGGAGCCUUCGGUGGCUCGAUAGCGCCAACGUUCUCGACUAUGACACGCAAAACGCGUGCUCCGUUGAAUGGAGCUUAUGAUG [A30C C72G G86U A106G U144C C149G]	≤ -4.2
GGAUCUUCUCGAUCUAACAAAAAAGACAACUCUGCCACAAAGCUUGAGAGCAUCUUCGGAUGCAGAGGCGGCAGCCUUCGGUGGCGCGAUACCGCCAACGUUCUCAACUAUGACACGCAAAACGCAUGCUCCGUUGAAUGGAGUUUAUCAUG [A30C G92C G126A]	≤ -4.2
GGAUCUUCUCGAUCUAACAAAAAAGACAAGUCUGCCACCAAGCUUGAGAGCAUCGUCGGAUGCAGAGGCGGCAGCCUUCGGCGGCGCGAUAGCGCCAACGUUCUCAACUAUGACACGCAAAACGCGUGCUCCGUUUAAUGGAGUUUAUCAUG [A30G A39C U55G U82C G136U]	≤ -4.2
GGAUCUUCUCGAUCUAACAAAAAAGACAACUCUGCCACAAAGCUUGAGAGCAUCUUCGGAUGCAGAGGCGGCAGCCUUCGGUGGCGCGAUAGUGCCAACGUUCUCUACUAUGACACGCAAAACGCGUGCUACGUUGAAUGGCGUUUAUCAUG [A30C C93U A106U C131A A142C]	-4.12
GGAUCUUCUCGAUCUAACAAAAAAGACAACUCUGCCACAAAGCUUGACAUCAUCUUCGGAUGCAGAGGCGGCAGCCUUCGGUGGCGCGAUAGCGCCAGCGUUCUCAGCUAUGACACGUACAACGCGUGCUCCGUUGAAUGUAGUUUAUCAUG [A30C G48C G50U A98G A107G C118U A120C G141U]	≤ -4.2
GGAUCUUCUCGAUCUAACAAAAAAGACAACUCUGCCACAAAGCUUGAGAGCAUCUUCGGAUGCAGAGGCGGCAGCCUUCGGUGGCGCGAUAGCGUCAACGUUCUCAACUAUGACACGCAAAACGCGUGCUCCGUUGAAUGGAGUUUAUCAUG [A30C C95U]	-4.11
GGAUCUUCUCGAUCUAACAAAAAAGACAACUCUGCCACAAAGCUUGAGAGCAUCUUCGAAUGCAGAGGCGGCAGCCUUCGGUGGCGCGAUAGCGCCAACGUUCUCAACUAUGACACGCAAAACGCGUGCUCCGUUGAAUGGAGUUUAUCAUG [A30C G59A]	≤ -4.2
GGAUCUUCUCGAUCUAACAAAAAAGACAACUCUGCCACAAAGCUUGAGAGCAACUUCGGAUGCAGAGGCGGCAGCCUUCGGUGACGCGAUAGCGCCAACGUUCUCAACUAUGACACGCAAAACGCGUGCUCCGUUGAAUGGAGUUUAUCAUG [A30C U53A G84A]	≤ -4.2
GGAUCUUCUCGAUCUAACAAAAAAGACAACUCUGCCACAAAGCUUGAGAGCAUCUUCGGAUGCAGAGGCGGCAGCCUUCGGUGACGCGAUAGCGCCAACGUUCUCAACUAUGACCCGCAAAACGCGUGCUCCGUUGAAUGGAGUUUAUUAUG [A30C G84A A115C C149U]	≤ -4.2
GGAUCUUCUCGAUCUAACAAAAAAGACAACCAUGCCACAAAGCUUCAGACCAUCUUCUGAUGCAGAGGCGGCAGCCUUCGGUGGCGCCAUAGCGCCAACGUUCCCAACUAUGACACGCAAAGCGCGUGCUCCGUUGAAUGGAGUUUAUCAUG [A30C U31C C32A G46C G50C G58U G88C U104C A122G]	≤ -4.2
